Test results reported in patent publication US20260242478A1 (published 2026).
Where no end group is shown, it is not given here.

B1: Phage-1264 (peptide)
peptide: YCDGHDPQYIRKCI
notes: also called Peptide-87 library clone
B2: Phage-1260 (peptide)
peptide: YCAGHSLQYLGKCY
notes: as for B1
B3: Phage-1270 (peptide)
peptide: YCAGHSAEYIQKCL
notes: as for B1
B4: Phage-1261 (peptide)
peptide: YCAGHAAIYMAKCL
notes: as for B1
B5: Phage-1266 (peptide)
peptide: YCDGHSGEYMSKCL
notes: as for B1
B6: Phage-1272 (peptide)
peptide: YCQGHSVQYMAKCL
notes: as for B1
B7: Phage-1262 (peptide)
peptide: YCDGHSMTYMAKCI
notes: as for B1
B8: Phage-1263 (peptide)
peptide: YCDGHKWEYLQKCL
notes: as for B1
B9: Phage-1269 (peptide)
peptide: YCDGHSPQYLWKCL
notes: as for B1
B10: Phage-1268 (peptide)
peptide: YCDGHSMEYMAKCL
notes: as for B1
B11: Phage-1267 (peptide)
peptide: YCEGHAREYMDKCL
notes: as for B1
B12: Phage-1265 (peptide)
peptide: YCEGHLPMYMQKCM
notes: as for B1
B13: Phage-1271 (peptide)
peptide: YCAGHTQEYMLKCL
notes: as for B1
B14: Phage-1307 (peptide, not shown: large carriers)
peptide: YCEGHLQEYMGKCL
modifications: cysteine pairing not given here; also: fused to phage pIII protein, pIII and linker sequence not given here
notes: Tested as clonal phage supernatant
B15: Phage-1303 (peptide, not shown: large carriers)
peptide: YCAGHALEYMQKCM
modifications: cysteine pairing not given here; also: fused to phage pIII protein, pIII and linker sequence not given here
notes: as for B14
B16: Phage-1308 (peptide, not shown: large carriers)
peptide: YCDGHVTEYMAKCL
modifications: cysteine pairing not given here; also: fused to phage pIII protein, pIII and linker sequence not given here
notes: as for B14
B17: Phage-1301 (peptide, not shown: large carriers)
peptide: YCEGHLAVHMSKCL
modifications: cysteine pairing not given here; also: fused to phage pIII protein, pIII and linker sequence not given here
notes: as for B14
B18: Phage-1300 (peptide, not shown: large carriers)
peptide: YCSGHLPMYMAKCL
modifications: cysteine pairing not given here; also: fused to phage pIII protein, pIII and linker sequence not given here
notes: as for B14
B19: Phage-1305 (peptide, not shown: large carriers)
peptide: YCQGHSELYMSKCL
modifications: cysteine pairing not given here; also: fused to phage pIII protein, pIII and linker sequence not given here
notes: as for B14
B20: Phage-1302 (peptide, not shown: large carriers)
peptide: YCDGHIEMYMSKCM
modifications: cysteine pairing not given here; also: fused to phage pIII protein, pIII and linker sequence not given here
notes: as for B14
B21: Phage-1309 (peptide, not shown: large carriers)
peptide: YCDGHIMPYLDKCL
modifications: cysteine pairing not given here; also: fused to phage pIII protein, pIII and linker sequence not given here
notes: as for B14
B22: Phage-1306 (peptide, not shown: large carriers)
peptide: YCDGHTPQFRAKCL
modifications: cysteine pairing not given here; also: fused to phage pIII protein, pIII and linker sequence not given here
notes: as for B14
B23: Phage-1304 (peptide, not shown: large carriers)
peptide: YCEGHIGDYIAKCL
modifications: cysteine pairing not given here; also: fused to phage pIII protein, pIII and linker sequence not given here
notes: as for B14
B24: Phage-1294 (peptide)
peptide: YCDGHMDAYMSKCL
B25: Phage-1290 (peptide)
peptide: YCDGHEPQYMTKCL
B26: Phage-1297 (peptide)
peptide: YCDGHAAWYLQKCL
B27: Phage-1291 (peptide)
peptide: YCEGHLPQYLAKCY
B28: Phage-1293 (peptide)
peptide: YCEGHAAVYMHKCL
B29: Phage-1288 (peptide)
peptide: YCEGHMSEYMRKCL
B30: Phage-1299 (peptide)
peptide: YCEGHSRQYMEKCM
B31: Phage-1292 (peptide)
peptide: YCDGHYGAYILKCL
B32: Phage-1296 (peptide)
peptide: YCDGHAWWYMEKCL
B33: Phage-1295 (peptide)
peptide: YCMGHSAEYMGKCL
B34: Phage-1289 (peptide)
peptide: YCVGHLPLYMPNCL
B35: Phage-1298 (peptide)
peptide: YCEGHAQMYMLKCL
B36: Phage-1287 (peptide)
peptide: YCQGHAPWYMVKCL
B37: Phage-1258 (peptide)
peptide: YCEGHLSEYIGKCL
notes: as for B14
B38: Phage-1259 (peptide)
peptide: YCDGHTAQYMWKCL
notes: as for B14

What follows are binders tested against Anti-CD28 Fab (SEQ ID NOs: 696, 697) (assay: phage ELISA; Fab on plate pre-incubated with CD28 antigen (competitor), clonal phage supernatant, anti-M13 HRP detection).
Target sequence in this assay (VH, as listed by the source, chain 1 of 2): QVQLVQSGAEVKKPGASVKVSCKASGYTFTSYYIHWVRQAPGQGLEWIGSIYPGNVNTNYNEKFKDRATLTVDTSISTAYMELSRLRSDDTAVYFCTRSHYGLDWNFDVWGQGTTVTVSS
Target sequence in this assay (VL, as listed by the source, chain 2 of 2): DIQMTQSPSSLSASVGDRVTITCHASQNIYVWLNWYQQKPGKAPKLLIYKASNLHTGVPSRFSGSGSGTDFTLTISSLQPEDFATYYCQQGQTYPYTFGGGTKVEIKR
Protocol: (§1) After panning, phage infected bacteria were plated out and colonies picked into 96 well blocks. Clonal phage was then amplified and separated from bacterial cells via centrifugation.
(§2) Clonal phage were harvested as crude supematants and screened via standard ELISAs. […] Prior to the addition of clonal phage, wells were incubated with blocking buffer and CD28 antigen or blocking buffer alone. Without washing or aspirating, clonal phage supematants were then added to the wells and incubated for a short time. Wells were then washed followed by detection of bound phage using a horse radish conjugated anti-M13 antibody. Clonal phage of interest were then sent for sequence analysis.

B1 and B2 are the same in “Phage binding ELISA, Anti-CD28 Fab signal in the presence of CD28” value: 0.06 for the first, 0.06 for the second.

Compared with B3, B4 is lower in “Phage binding ELISA, Anti-CD28 Fab signal in the presence of CD28” value: 0.08 for the first, 0.07 for the second.

B5 and B6 are the same in “Phage binding ELISA, Anti-CD28 Fab signal in the presence of CD28” value: 0.06 for the first, 0.06 for the second.

B7 and B8 are the same in “Phage binding ELISA, Anti-CD28 Fab signal in the presence of CD28” value: 0.06 for the first, 0.06 for the second.

Compared with B9, B10 is higher in “Phage binding ELISA, Anti-CD28 Fab signal in the presence of CD28” value: 0.05 for the first, 0.07 for the second.

B11 and B12 are the same in “Phage binding ELISA, Anti-CD28 Fab signal in the presence of CD28” value: 0.07 for the first, 0.07 for the second.

In the case of B13, the “Phage binding ELISA, Anti-CD28 Fab signal in the presence of CD28” value is reported as 0.06.

The binders below were run against Anti-CD28 Fab (SEQ ID NOs: 696, 697) (assay: phage ELISA; biotinylated anti-CD28 Fab on neutravidin plate, clonal phage supernatant, anti-M13 HRP detection;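 further: crude supernatants of single phage clones picked after panning were screened for binding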).
Target sequence in this assay (VH, as listed by the source, chain 1 of 2): as the sequence (VH, as listed by the source, chain 1 of 2) above
Target sequence in this assay (VL, as listed by the source, chain 2 of 2): as the sequence (VL, as listed by the source, chain 2 of 2) above
Protocol: as §1, §2

Compared with B14, B15 is higher in “Anti-CD28 Fab signal (phage binding ELISA)” value: 0.58 for the first, 0.61 for the second.

First: B16
Second: B17
The “Anti-CD28 Fab signal (phage binding ELISA)” value of the first is lower: 0.58 for the first, 0.62 for the second.

First: B18
Second: B19
The “Anti-CD28 Fab signal (phage binding ELISA)” value of the first is higher: 0.62 for the first, 0.6 for the second.

First: B20
Second: B21
The “Anti-CD28 Fab signal (phage binding ELISA)” value of the first is higher: 0.61 for the first, 0.57 for the second.

First: B22
Second: B23
The “Anti-CD28 Fab signal (phage binding ELISA)” value of the first is lower: 0.59 for the first, 0.61 for the second.

These binders were tested against T1, Anti-CD28 Fab (SEQ ID NOs: 696, 697) in the same assay as above.
T1 construct: In the phage ELISA the Fab was biotinylated and captured on neutravidin coated plates
T1 sequence (VH, as listed by the source, chain 1 of 2): as the sequence (VH, as listed by the source, chain 1 of 2) above
T1 sequence (VL, as listed by the source, chain 2 of 2): as the sequence (VL, as listed by the source, chain 2 of 2) above
Protocol: as §1, §2

First: B24
Second: B25
The “Phage binding ELISA, Anti-CD28 Fab signal” value of the first is lower: 0.65 for the first, 0.68 for the second.

Compared with B26, B27 is higher in “Phage binding ELISA, Anti-CD28 Fab signal” value: 0.64 for the first, 0.67 for the second.

First: B28
Second: B29
The “Phage binding ELISA, Anti-CD28 Fab signal” value of the first is lower: 0.67 for the first, 0.69 for the second.

First: B30
Second: B31
The “Phage binding ELISA, Anti-CD28 Fab signal” value of the first is lower: 0.63 for the first, 0.67 for the second.

B32 and B33 are the same in “Phage binding ELISA, Anti-CD28 Fab signal” value: 0.64 for the first, 0.64 for the second.

First: B34
Second: B35
The “Phage binding ELISA, Anti-CD28 Fab signal” value of the first is higher: 0.68 for the first, 0.64 for the second.

In the case of B36, the “Phage binding ELISA, Anti-CD28 Fab signal” value is reported as 0.69.

Biological target: Anti-CD28 Fab (SEQ ID NOs: 696, 697)
Experiment: as above
Remark: another data set of the same source
Target sequence in this assay (VH, as listed by the source, chain 1 of 2): as the sequence (VH, as listed by the source, chain 1 of 2) above
Target sequence in this assay (VL, as listed by the source, chain 2 of 2): as the sequence (VL, as listed by the source, chain 2 of 2) above
Protocol: as §1, §2

Going from B1 to B2, the “Phage binding ELISA, Anti-CD28 Fab signal” value rises from 0.83 to 0.86.

Compared with B3, B4 is higher in “Phage binding ELISA, Anti-CD28 Fab signal” value: 0.8 for the first, 0.85 for the second.

Compared with B5, B6 is lower in “Phage binding ELISA, Anti-CD28 Fab signal” value: 0.82 for the first, 0.77 for the second.

B7 and B8 are the same in “Phage binding ELISA, Anti-CD28 Fab signal” value: 0.84 for the first, 0.84 for the second.

B9 and B10 are the same in “Phage binding ELISA, Anti-CD28 Fab signal” value: 0.8 for the first, 0.8 for the second.

Going from B11 to B12, the “Phage binding ELISA, Anti-CD28 Fab signal” value rises from 0.8 to 0.82.

For B13, the “Phage binding ELISA, Anti-CD28 Fab signal” value was 0.78.

Each binder was assayed against Anti-CD28 Fab (SEQ ID NOs: 696, 697) (assay: phage binding ELISA; biotinylated Fab on neutravidin plate, clonal phage supernatant, anti-M13 HRP;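 further: clones picked after panning, added to wells pre-incubated with CD28 antigen or with blocking buffer only, no wash before phage addition, bound phage read after washing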).
Target sequence in this assay (VH, as listed by the source, chain 1 of 2): as the sequence (VH, as listed by the source, chain 1 of 2) above
Target sequence in this assay (VL, as listed by the source, chain 2 of 2): as the sequence (VL, as listed by the source, chain 2 of 2) above

B37 and B38 are the same in “Anti-CD28 Fab (SEQ ID NOs: 696, 697) signal” value: 0.87 for the first, 0.87 for the second.

These binders were tested against Anti-CD28 Fab (SEQ ID NOs: 696, 697) (assay: phage ELISA as above; wells pre-incubated with CD28 antigen as competitor).
Target sequence in this assay (VH, as listed by the source, chain 1 of 2): as the sequence (VH, as listed by the source, chain 1 of 2) above
Target sequence in this assay (VL, as listed by the source, chain 2 of 2): as the sequence (VL, as listed by the source, chain 2 of 2) above
Protocol: as §1, §2

First: B14
Second: B15
The “Anti-CD28 Fab signal in the presence of CD28 (phage binding ELISA)” value of the first is higher: 0.25 for the first, 0.08 for the second.

Going from B16 to B17, the “Anti-CD28 Fab signal in the presence of CD28 (phage binding ELISA)” value falls from 0.07 to 0.06.

Going from B18 to B19, the “Anti-CD28 Fab signal in the presence of CD28 (phage binding ELISA)” value falls from 0.13 to 0.08.

First: B20
Second: B21
The “Anti-CD28 Fab signal in the presence of CD28 (phage binding ELISA)” value of the first is higher: 0.06 for the first, 0.05 for the second.

Compared with B22, B23 is higher in “Anti-CD28 Fab signal in the presence of CD28 (phage binding ELISA)” value: 0.07 for the first, 0.36 for the second.

Each binder was assayed against Anti-CD28 Fab (SEQ ID NOs: 696, 697) (assay: phage binding ELISA; captured Fab pre-incubated with CD28 antigen as competitor, anti-M13 HRP).
Protocol: as §1, §2

Compared with B37, B38 is higher in “Anti-CD28 Fab signal in the presence of CD28” value: 0.06 for the first, 0.07 for the second.

What follows are binders tested against T1, Anti-CD28 Fab (SEQ ID NOs: 696, 697) (assay: phage ELISA; Fab-coated wells pre-incubated with CD28 antigen as competitor, clonal phage supernatant, anti-M13 HRP detection).
Protocol: as §1, §2

First: B24
Second: B25
The “Phage binding ELISA, Anti-CD28 Fab signal in the presence of CD28” value of the first is lower: 0.06 for the first, 0.1 for the second.

Going from B26 to B27, the “Phage binding ELISA, Anti-CD28 Fab signal in the presence of CD28” value rises from 0.07 to 0.08.

Going from B28 to B29, the “Phage binding ELISA, Anti-CD28 Fab signal in the presence of CD28” value rises from 0.09 to 0.1.

Going from B30 to B31, the “Phage binding ELISA, Anti-CD28 Fab signal in the presence of CD28” value falls from 0.33 to 0.06.

B32 and B33 are the same in “Phage binding ELISA, Anti-CD28 Fab signal in the presence of CD28” value: 0.06 for the first, 0.06 for the second.

Going from B34 to B35, the “Phage binding ELISA, Anti-CD28 Fab signal in the presence of CD28” value falls from 0.11 to 0.06.

B36 was tested, and the “Phage binding ELISA, Anti-CD28 Fab signal in the presence of CD28” value was 0.08.
